# Assay results: patent US20240279315A1 (priority 2023, published 2024)
# Where two headings read alike, the source gives them in different places.
# Legend:
# Assay in all cases: cell-based or functional assay
# [1] = target: hemagglutinin (HA) of influenza B/Colorado/06/2017 B-Vic (influenza B virus B/Colorado/06/2017)
# [2] = target: hemagglutinin (HA) of influenza A/Kansas/14/2017 H3N2 (influenza A virus A/Kansas/14/2017 (H3N2))
# [3] = target: hemagglutinin (HA) of influenza A/Cambodia/e0826360/2020 H3N2 (influenza A virus A/Cambodia/e0826360/2020 (H3N2))
# [4] = target: hemagglutinin (HA) of influenza B/California/12/2015 B-Yam (influenza B virus B/California/12/2015)
# [5] = target: hemagglutinin (HA) of influenza A/Brisbane/02/2018 H1N1 (influenza A virus A/Brisbane/02/2018 (H1N1))
# [6] = target: hemagglutinin (HA) of influenza B/Washington/02/2019 B-Vic (influenza B virus B/Washington/02/2019)
# [7] = target: hemagglutinin (HA) of influenza B/Maryland/15/2016 B-Vic (influenza B virus B/Maryland/15/2016)
# [8] = target: hemagglutinin (HA) of influenza A/Victoria/2570/2019 H1N1 (influenza A virus A/Victoria/2570/2019 (H1N1))
# [9] = target: hemagglutinin (HA) of influenza B/Phuket/3073/2013 B-Yam (influenza B virus B/Phuket/3073/2013)
# [10] = target: hemagglutinin (HA) of influenza A/Singapore/INFIMH-16-0019/2016 H3N2 (influenza A virus A/Singapore/INFIMH-16-0019/2016 (H3N2))
# [11] = target: hemagglutinin (HA) of influenza B/Colorado/06/2017 B-Vic (influenza B virus B/Colorado/06/2017); remark: listed apart in the source
# [12] = target: hemagglutinin (HA) of influenza A/Sydney/5/2021 (influenza A virus A/Sydney/5/2021)
# [13] = target: hemagglutinin (HA) of influenza A/Kansas/14/2017 H3N2 (influenza A virus A/Kansas/14/2017 (H3N2)); remark: listed apart in the source
# [14] = target: hemagglutinin (HA) of influenza A/Tasmania/503/2020 (H3N2) (influenza A virus A/Tasmania/503/2020 (H3N2))
# [15] = target: hemagglutinin (HA) of influenza A/Brisbane/02/2018 H1N1 (influenza A virus A/Brisbane/02/2018 (H1N1)); remark: listed apart in the source
# [16] = target: hemagglutinin (HA) of influenza A/Wisconsin/588/2019 (influenza A virus A/Wisconsin/588/2019)
# [17] = target: hemagglutinin (HA) of influenza B/Washington/02/2019 B-Vic (influenza B virus B/Washington/02/2019); remark: listed apart in the source
# [18] = target: hemagglutinin (HA) of influenza B/Austria/1359417/2021 (influenza B virus B/Austria/1359417/2021)
# [19] = target: hemagglutinin (HA) of influenza A/Darwin/6/2021 (influenza A virus A/Darwin/6/2021)
# [20] = target: hemagglutinin (HA) of influenza B/Phuket/3073/2013 B-Yam (influenza B virus B/Phuket/3073/2013); remark: listed apart in the source
# [21] = target: hemagglutinin (HA) of influenza A/Singapore/INFIMH-16-0019/2016 H3N2 (influenza A virus A/Singapore/INFIMH-16-0019/2016 (H3N2)); remark: listed apart in the source
# [22] = target: hemagglutinin (HA) of influenza A/Hawaii/70/2019 (influenza A virus A/Hawaii/70/2019)
# [23] = target: hemagglutinin (HA) of influenza A/Hong Kong/45/2019 H3N2 (influenza A virus A/Hong Kong/45/2019 (H3N2))
# [24] = target: hemagglutinin (HA) of influenza A/Cambodia/e0826360/2020 H3N2 (influenza A virus A/Cambodia/e0826360/2020 (H3N2)); remark: listed apart in the source
# [25] = target: hemagglutinin (HA) of influenza A/Hong Kong/45/2019 H3N2 (influenza A virus A/Hong Kong/45/2019 (H3N2)); remark: listed apart in the source
# [26] = target: hemagglutinin (HA) of influenza A/Victoria/2570/2019 H1N1 (influenza A virus A/Victoria/2570/2019 (H1N1)); remark: listed apart in the source
# [27] = target: hemagglutinin (HA) of influenza B/Brisbane/60/2008 B-Vic (influenza B virus B/Brisbane/60/2008)
# [28] = target: hemagglutinin (HA) of influenza A/Hong Kong/4801/2014 H3N2 (influenza A virus A/Hong Kong/4801/2014 (H3N2))
# [29] = target: hemagglutinin (HA) of influenza A/Switzerland/9715293/2013 H3N2 (influenza A virus A/Switzerland/9715293/2013 (H3N2))
substance,measurement,setting,value
SAB-176 Lot 3 (antibody),HAI titer,[1],256 titer
same,HAI titer ratio of SAB-176 to hIVIG,[1],16 to 32 X
same,HAI titer,[2],512 titer
same,HAI titer ratio of SAB-176 to hIVIG,[2],16 to 128 X
same,HAI titer,[3],256 titer
same,HAI titer ratio of SAB-176 to hIVIG,[3],8 to 16 X
same,HAI titer,[4],128 titer
same,HAI titer ratio of SAB-176 to hIVIG,[4],16 to 32 X
same,HAI titer,[5],512 titer
same,HAI titer ratio of SAB-176 to hIVIG,[5],16 to 32 X
same,HAI titer,[6],64 titer
same,HAI titer ratio of SAB-176 to hIVIG,[6],8 to 16 X
same,HAI titer,[7],128 titer
same,HAI titer ratio of SAB-176 to hIVIG,[7],8 to 16 X
same,HAI titer,[8],256 titer
same,HAI titer ratio of SAB-176 to hIVIG,[8],16 to 32 X
same,HAI titer,[9],128 titer
same,HAI titer ratio of SAB-176 to hIVIG,[9],16 X
same,HAI titer,[10],512 titer
same,HAI titer ratio of SAB-176 to hIVIG,[10],8 to 32 X
SAB-176 Lot 4 (PD2102092QR) (antibody),HAI titer,[11],160 titer
same,HAI titer,[12],320 titer
same,HAI titer,[13],320 titer
same,HAI titer,[14],320 titer
same,HAI titer,[15],1280 titer
same,HAI titer,[16],640 titer
same,HAI titer,[17],160 titer
same,HAI titer,[18],40 titer
same,HAI titer,[19],160 titer
same,HAI titer,[20],160 titer
same,HAI titer,[21],640 titer
same,HAI titer,[22],905 titer
same,HAI titer,[1],256 titer
same,HAI titer ratio of SAB-176 to hIVIG,[1],16 to 32 X
same,HAI titer,[2],256 titer
same,HAI titer ratio of SAB-176 to hIVIG,[2],8 to 64 X
same,HAI titer,[3],256 titer
same,HAI titer ratio of SAB-176 to hIVIG,[3],8 to 16 X
same,HAI titer,[4],128 titer
same,HAI titer ratio of SAB-176 to hIVIG,[4],16 to 32 X
same,HAI titer of drug product,[23],1920 titer
same,HAI titer,[5],512 titer
same,HAI titer ratio of SAB-176 to hIVIG,[5],16 to 32 X
same,HAI titer,[6],128 titer
same,HAI titer of drug product,[6],960 titer
same,HAI titer ratio of SAB-176 to hIVIG,[6],16 to 32 X
same,HAI titer,[7],256 titer
same,HAI titer ratio of SAB-176 to hIVIG,[7],16 to 32 X
same,HAI titer,[8],256 titer
same,HAI titer,[9],128 titer
same,HAI titer of drug product,[9],3840 titer
same,HAI titer ratio of SAB-176 to hIVIG,[9],16 X
same,HAI titer,[10],512 titer
same,HAI titer ratio of SAB-176 to hIVIG,[10],8 to 32 X
same,HAI titer ratio of SAB-176 to hIVIG,[24],32 X
same,HAI titer,[25],256 titer
same,HAI titer ratio of SAB-176 to hIVIG,[25],16 to 32 X
same,HAI titer ratio of SAB-176 to hIVIG,[26],16 to 32 X
SAB-176 Lot 5 (PD2203294QR) (antibody),HAI titer,[11],160 titer
same,HAI titer,[12],1280 titer
same,HAI titer,[13],320 titer
same,HAI titer,[14],640 titer
same,HAI titer,[15],1280 titer
same,HAI titer,[16],1280 titer
same,HAI titer,[17],320 titer
same,HAI titer,[18],40 titer
same,HAI titer,[19],320 titer
same,HAI titer,[20],80 titer
same,HAI titer,[21],320 titer
same,HAI titer,[22],1810 titer
same,HAI titer of drug substance,[3],3840 titer
same,HAI titer of drug substance,[6],3840 titer
same,HAI titer of drug substance,[8],7680 titer
same,HAI titer of drug substance,[9],1920 titer
SAB-176 Lot 6 (PD2204315QR) (antibody),HAI titer,[11],160 titer
same,HAI titer,[12],1280 titer
same,HAI titer,[13],320 titer
same,HAI titer,[14],640 titer
same,HAI titer,[15],1280 titer
same,HAI titer,[16],1280 titer
same,HAI titer,[17],320 titer
same,HAI titer,[18],40 titer
same,HAI titer,[19],160 titer
same,HAI titer,[20],160 titer
same,HAI titer,[21],320 titer
same,HAI titer,[22],1810 titer
same,HAI titer of drug substance,[3],7680 titer
same,HAI titer of drug substance,[6],3840 titer
same,HAI titer of drug substance,[8],7680 titer
same,HAI titer of drug substance,[9],1920 titer
negative control IgG (antibody),HAI titer,[27],< 1 titer
same,HAI titer,[1],< 1 titer
same,HAI titer,[28],< 1 titer
same,HAI titer,[2],< 1 titer
same,HAI titer,[3],< 1 titer
same,HAI titer,[4],< 1 titer
same,HAI titer,[5],< 1 titer
same,HAI titer,[6],< 1 titer
same,HAI titer,[7],< 1 titer
same,HAI titer,[8],< 1 titer
same,HAI titer,[29],< 1 titer
same,HAI titer,[9],< 1 titer
same,HAI titer,[10],< 1 titer
same,HAI titer,[25],< 1 titer
